From PMC10319324, “Ηigh-resolution structure of mammalian PI31–20S proteasome complex reveals mechanism of proteasome inhibition” (The Journal of Biological Chemistry, 2023)

T1: recombinant wildtype human PI31 (Proteasome Inhibitor of 31,000 Da) (human, UniProt Q92530 1-271)
T1 construct: PI31, product of the PSMF1 gene, human; The methods name a pET28a(+) vector with N-terminally tagged wildtype hPI31 and 'His-PI31 (wildtype)' for mass photometry; Exists in a monomer-dimer equilibrium; also called hPI31; hPI31^WT; source: E. coli, purified; not shown: His tag, N-terminal, kept
T1 sequence (looked up): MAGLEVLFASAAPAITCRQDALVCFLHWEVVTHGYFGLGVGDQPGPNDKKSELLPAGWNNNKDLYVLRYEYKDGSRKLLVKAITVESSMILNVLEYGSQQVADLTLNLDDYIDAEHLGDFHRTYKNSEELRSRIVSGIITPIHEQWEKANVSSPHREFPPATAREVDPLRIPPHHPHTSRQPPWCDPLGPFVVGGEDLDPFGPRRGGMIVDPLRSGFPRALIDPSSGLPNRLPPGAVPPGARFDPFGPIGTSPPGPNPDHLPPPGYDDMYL

B1: human PI31 C-terminal domain, residues 152-271 (domain or fragment, UniProt Q92530 152-271, looked up)
chain: SSPHREFPPATAREVDPLRIPPHHPHTSRQPPWCDPLGPFVVGGEDLDPFGPRRGGMIVDPLRSGFPRALIDPSSGLPNRLPPGAVPPGARFDPFGPIGTSPPGPNPDHLPPPGYDDMYL
B2: human PI31 V6R dimerization mutant (natural protein, UniProt Q92530 1-271, looked up)
chain: MAGLERLFASAAPAITCRQDALVCFLHWEVVTHGYFGLGVGDQPGPNDKKSELLPAGWNNNKDLYVLRYEYKDGSRKLLVKAITVESSMILNVLEYGSQQVADLTLNLDDYIDAEHLGDFHRTYKNSEELRSRIVSGIITPIHEQWEKANVSSPHREFPPATAREVDPLRIPPHHPHTSRQPPWCDPLGPFVVGGEDLDPFGPRRGGMIVDPLRSGFPRALIDPSSGLPNRLPPGAVPPGARFDPFGPIGTSPPGPNPDHLPPPGYDDMYL
notes: PI31, product of the PSMF1 gene, human; point mutation V6R in the FP domain, made on the pET28a(+)-HisPI31^wt template; also called hPI31^V6R; source: E. coli BL21 Star (DE3), purified (Ni-NTA); not shown: His tag, N-terminal, kept
B3: β5 subunit of the bovine 20S proteasome (natural protein, UniProt Q32KL2 60-263, looked up)
chain: TTTLAFKFRHGVIVAADSRATAGAYIASQTVKKVIEINPYLLGTMAGGAADCSFWERLLARQCRIYELRNKERISVAAASKLLANMVYQYKGMGLSMGTMICGWDKRGPGLYYVDSEGNRISGATFSVGSGSVYAYGVMDRGYSYDLEVEEAYDLARRAIYQATYRDAYSGGSVSLYHVREDGWIRVSSDNVADLHDKYSGSTH
notes: Stood in the assay as a subunit of the assembled 20S proteasome; also called β5 active site; β5 catalytic site; source: purified from bovine red blood cells, as part of the 20S proteasome
B4: β2 subunit of the bovine 20S proteasome (natural protein, UniProt Q2TBP0 44-277, looked up)
chain: TTIAGVVYKDGIVLGADTRATEGMVVADKNCSKIHFISPNIYCCGAGTAADTDMTTQLISSNLELHSLSTGRLPRVVTANRMLKQMLFRYQGYIGAALVLGGVDVTGPHLYSIYPHGSTDKLPYVTMGSGSLAAMAVFEDKFRPDMEEEEAKKLVSEAIAAGIFNDLGSGSNIDLCVISKSKLDFLRPYSVPNKKGTRFGRYRCEKGTNAVLTEKVTTLEIEVLEETVQTMDTS
notes: Stood in the assay as a subunit of the assembled 20S proteasome; also called β2 active site; β2 catalytic site; source: purified from bovine red blood cells, as part of the 20S proteasome

Legend:
bovine 20S proteasome = bovine 20S proteasome (bovine, UniProt Q2YDE4 1-246; Q3T0Y5 1-234; Q3ZCK9 1-261; Q3ZBG0 1-248; Q5E987 1-241; Q3T0X5 …); assay: cell-based or functional assay
[1] = biological target: the molecule itself; assay: mass photometry; monomer to dimer; His-PI31 diluted to 40 nM total monomer in PBS, recorded immediately after mixing (TwoMP, Refeyn); peaks at 36 to 37 and 56 to 59 kDa
[2] = biological target: T1, recombinant wildtype human PI31 …; assay: cryo-EM structure; purified hPI31 and bovine 20S mixed at a molar ratio of 5:1, 37 °C for 1 h in 20 mM Tris, pH 7.5, 5 mM MgCl2, 100 mM KCl, 1 mM DTT; latent closed-gate 20S; C1 map at 2.54 Å; conditions: both partners purified

| Binder | [monomer] at 50% inhibitory activity against SDS-activated 20S (50 nM), PI31 up to 10-fold molar excess (bovine 20S proteasome) | inhibition of the catalytic activity of each subunit type (β1, β2, β5 peptide substrates), PI31 at 10- to 20-fold molar excess (bovine 20S proteasome) | [monomer]/[M]T ratio [1] | binding result [2] |
| --- | --- | --- | --- | --- |
| B1 | 200 nM | > 95% | – | – |
| B2 | 108 nM | – | 0.54 | – |
| B3 | – | – | – | binds |
| B4 | – | – | – | binds |
